# Assays:
# [1] = Gelation kinetics of pH adjusted peptides, time sweep test with DMEM; assay type: physicochemical
# Protocol: The effect of pH level on the properties of gelation kinetics was evaluated to identify optimized pH levels for the peptides as described herein. Fast gelation kinetics of PuraMatrix® and other peptides within body fluid may generally improve its function and response time for various clinical applications. The pH level may impart response time to begin gelation when treated with simulated body fluid including but not limited to DMEM. […] A fast response time of PuraMatrix® (SEQ ID NO:1) and other peptides within body fluid may generally improve its function and response time for various clinical applications.
# (§1) Time sweep tests were performed at 1 rad/sec and at 1 Pa with 20 mm plates and 500 μm gap distance. During time sweep test of PuraMatrix® (SEQ ID NO:1) 2.5% solution, DMEM was added into the chamber surrounding the measuring plates to soak PuraMatrix® (SEQ ID NO:1) solution at 0 time point. The results are shown in FIG. 9A for PuraMatrix® (SEQ ID NO:1) 2.5% solution.
# as §1, with “IEIK13” for “PuraMatrix®”, “NO:2) 1.5%” for “NO:1) 2.5%”, “NO:2) 1.5%” for “NO:1)”, “point and continuously data was recorded.” for “point.”, “9B” for “9A”
# Swine lungs = experiment: Lung volume reduction: injection of peptide hydrogel into bronchi of excised lungs; details: for filling of lumens of the lungs (histology): hydrogel with 0.00585% Indigo Carmine
# From the text: Swine lungs were obtained from freshly euthanized pigs. An endotracheal tube, connected to a syringe filled with a peptide hydrogel, was inserted through the trachea and primary bronchus into the lobe of interest. The tube was led through the bronchi to the end of the appropriate lobe and the distance was noted.
# The self-assembling peptide hydrogels were comprised of Ac-RADARADARADARADA-NH2 (SEQ ID NO: 1) (i.e., RADA16) or Ac-IEIKIEIKIEIKI-NH2 (SEQ ID NO: 2) (i.e., IEIK13). RADA16 (SEQ ID NO:1) or IEIK13 (SEQ ID NO:2) was mixed with 0.00585% Indigo Carmine to observe spreading of the hydrogels throughout the lobes. When mixed, the peptides were reconstituted with […]. The peptides were reconstituted first in deionized water, and subsequently with 1% Indigo Carmine to provide a final concentration of 0.00585% of the contrast reagent.
# Once the lobe of interest was identified, the endotracheal tube was fed to the end where the hydrogels were injected. After each injection of 1 ml of hydrogel the tube was retracted 2 cm and the injection was repeated. This procedure was repeated until a backflow of hydrogel was observed from the bronchi and the total volume of hydrogel injected was noted. The final injection ranged from 0.5-1.5 ml. After backflow of hydrogel was observed, the lobes were cut at 90 degrees to the midline for histological analysis. FIG. 25 illustrates the procedural flow of injecting peptide hydrogel into the bronchi of a single lobe of the lung and observation of penetration of the solution. Lumen penetration of 1% Indigo Carmine solution (left) was compared to 1.5% IEIK13 (SEQ ID NO:2)+0.00585% Indigo Carmine (right).
# Tissue samples were fixed in paraformaldehyde and rinsed with ethanol. Histology was conducted at Beth Israel Deaconess Medical Center. […] FIG. 28A presents the IEIK13 (SEQ ID NO:2) gel observed within the major lumens. FIG. 28B presents the IEIK13 ((SEQ ID NO:2) gel observed within the minor lumens. Due to H&E processing, peptide gels break/fragment. Optical imaging has shown that these gels remain as bulk structures.
# [2] = Mechanical properties of IEIK13 with and without Indigo Carmine; assay type: physicochemical; details: 1.5% IEIK13; 0.00585% Indigo Carmine; 24 hours post reconstitution
# Protocol: Indigo carmine powder was used to prepare a 1% solution in deionized (DI) water. Using IEIK13 (SEQ ID NO:2) powder, a 2 percent solution was prepared using DI water. The amount of IEIK13 (SEQ ID NO:2) was weighed out and the appropriate amount of DI water was added gently down the side of the container. Mixing was accomplished by vortexing for about 30 seconds, and then sonicating for 30 seconds. The solution was then centrifuged for about 10 to about 15 minutes at […]. The solution may undergo further vortexing and centrifuging until the solution is clear and without bubbles.
# To obtain a final concentration of 0.00585% indigo carmine, the necessary amount of 1% IC is added to the appropriate amount of DI water to dilute 2% IEIK (SEQ ID NO:2) to 1.5% IEIK (SEQ ID NO:2). The solution is then vortexted for about 30 seconds and centrifuged for about 10 to about 15 minutes at 3000 rpm. The solution may undergo further vortexing and centrifuging until the solution is clear and without bubbles.
# The solution was allowed to sit overnight at room temperature prior to use. The cap may be left off of the container during preparation to allow more efficient removal of bubbles.
# Visualization of hydrogel spreading throughout the lumen of the lungs was necessary for determination of feasibility. Indigo Carmine was chosen as a common contrast reagent. […]
# [3] = with pH adjustment, PuraMatrix 2.5%, IEIK13 1.5% solution
Substance,"gelation response to DMEM [1, 3]","lung volume reduction, penetration into lung tissue, versus 1.5% IEIK13 (Swine lungs; 1.0% with 0.00585% Indigo Carmine)",filling of lumens of the lungs (histology) (Swine lungs),"gelation response to DMEM ([1]; without pH adjustment, 1.5% solution)",mechanical properties with versus without Indigo Carmine [2]
Arg-Ala-Asp-Ala-Arg-Ala-Asp-Ala-Arg-Ala-Asp-Ala-Arg-Ala-Asp-Ala [PuraMatrix ®],immediate storage modulus increase,decidedly better,filled both major and minor lumens,–,–
Ile-Glu-Ile-Lys-Ile-Glu-Ile-Lys-Ile-Glu-Ile-Lys-Ile [IEIK13],immediate storage modulus increase,–,filled both major and minor lumens,immediate storage modulus increase,no significant difference
